According to patent US20080227698A1, “OLIGOPEPTIDES FOR TREATMENT OF OSTEOPOROSIS AND OTHER BONE DISEASES AND METHODS THEREOF” (Washington University, priority 2005, published 2008):

Experiments:
LRP6 [1] = molecular target: T1, LRP6 (Homo sapiens, UniProt O75581); experiment: LRP6-mediated ^125I-DKK1 degradation in LRP6-transduced HT1080 cells; type: cell-based; design: plasmid pCS-Myc-hLRP6 containing the full-length human LRP6 cDNA; HA; expressed in transfected cells; host or cells: human HT1080 cells, stably transduced (pLNCX2 retroviral vector); conditions: 5 nM, 4 hours at 37° C.
T1 sequence (O75581 20-1613): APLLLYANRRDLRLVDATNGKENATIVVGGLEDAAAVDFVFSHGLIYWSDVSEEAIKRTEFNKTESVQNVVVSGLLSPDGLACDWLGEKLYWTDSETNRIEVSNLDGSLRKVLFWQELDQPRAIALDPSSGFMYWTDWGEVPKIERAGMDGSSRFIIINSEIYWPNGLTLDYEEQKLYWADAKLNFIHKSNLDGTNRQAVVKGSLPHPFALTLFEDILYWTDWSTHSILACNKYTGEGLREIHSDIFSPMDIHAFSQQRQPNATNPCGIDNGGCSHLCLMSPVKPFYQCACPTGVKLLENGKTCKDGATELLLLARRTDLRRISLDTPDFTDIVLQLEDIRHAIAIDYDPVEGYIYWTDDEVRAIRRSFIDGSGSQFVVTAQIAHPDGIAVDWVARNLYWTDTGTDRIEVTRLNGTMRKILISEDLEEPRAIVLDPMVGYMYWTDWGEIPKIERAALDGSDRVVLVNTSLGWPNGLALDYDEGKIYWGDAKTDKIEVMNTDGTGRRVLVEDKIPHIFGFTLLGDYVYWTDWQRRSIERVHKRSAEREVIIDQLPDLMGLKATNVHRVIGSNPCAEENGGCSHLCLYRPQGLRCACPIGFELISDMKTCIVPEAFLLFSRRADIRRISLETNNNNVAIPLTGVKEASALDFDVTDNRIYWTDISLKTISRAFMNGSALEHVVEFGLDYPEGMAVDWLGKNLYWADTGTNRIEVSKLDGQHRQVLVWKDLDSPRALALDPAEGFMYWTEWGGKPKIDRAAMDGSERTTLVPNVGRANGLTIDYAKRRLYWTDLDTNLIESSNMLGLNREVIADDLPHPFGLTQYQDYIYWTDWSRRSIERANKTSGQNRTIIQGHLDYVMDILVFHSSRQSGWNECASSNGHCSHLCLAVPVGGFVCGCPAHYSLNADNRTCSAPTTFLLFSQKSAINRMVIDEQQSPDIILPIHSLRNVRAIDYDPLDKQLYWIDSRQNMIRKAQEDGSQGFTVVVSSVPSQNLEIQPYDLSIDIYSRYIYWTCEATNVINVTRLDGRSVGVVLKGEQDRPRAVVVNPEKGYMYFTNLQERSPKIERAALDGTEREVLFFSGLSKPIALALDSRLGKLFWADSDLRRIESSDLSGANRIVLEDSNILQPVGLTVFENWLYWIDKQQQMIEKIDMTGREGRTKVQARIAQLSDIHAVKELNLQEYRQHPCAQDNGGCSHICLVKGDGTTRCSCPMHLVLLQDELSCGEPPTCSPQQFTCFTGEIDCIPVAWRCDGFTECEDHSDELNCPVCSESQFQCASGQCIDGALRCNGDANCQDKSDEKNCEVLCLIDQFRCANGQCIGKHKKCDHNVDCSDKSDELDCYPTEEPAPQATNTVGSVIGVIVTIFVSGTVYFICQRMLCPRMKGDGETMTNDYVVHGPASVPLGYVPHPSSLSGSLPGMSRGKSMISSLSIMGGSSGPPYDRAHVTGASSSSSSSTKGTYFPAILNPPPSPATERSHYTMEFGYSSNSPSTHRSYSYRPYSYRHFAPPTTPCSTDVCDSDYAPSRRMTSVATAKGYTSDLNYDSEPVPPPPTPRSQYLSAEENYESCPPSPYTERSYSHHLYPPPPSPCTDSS
Method: Ligand degradation was performed using the methods as described (Li, Y., J. Biol. Chem. 275: 17187-17194, 2000). Briefly, 2×10^5 cells were seeded into 12-well dishes 1 day prior to assay. Pre-warmed assay buffer (minimal Eagle's medium containing 0.6% BSA with radioligand, 0.6 ml/well) was added to cell monolayers in the absence or the presence of unlabeled 500 nM RAP or 500 nM Mesd, followed by incubation for 4 hours at 37° C. Thereafter, the medium overlying the cell monolayers was removed and proteins were precipitated by addition of BSA to 10 mg/ml and trichloroacetic acid to 20%. […] After each time point, the plates were quickly placed on ice and the assay buffer was replaced with cold stop/strip solution. ^125I-anti-HA IgG that remained on the cell surface was stripped by incubation of cell monolayers with cold stop/strip solution for a total of 20 minutes (0.75 ml for 10 minutes, twice) and counted. Cell monolayers were then solubilized with low-SDS lysis buffer and counted. […] The fraction of internalized ^125I-anti-HA IgG after each time point was calculated and plotted.
RAP is a receptor antagonist for members of the LDLR family, and is able to inhibit the binding of most known ligands of the LDLR family members. […] Cell-surface-bound Myc-tagged DKK proteins were fixed and detected by immunofluorescence staining with anti-Myc antibody. […]

LRP6 [2] = molecular target: T1, LRP6; experiment: ^125I-DKK1 binding to LRP6-transduced HT1080 cells; design: plasmid pCS-Myc-hLRP6 containing the full-length human LRP6 cDNA; HA; expressed in transfected cells; host or cells: human HT1080 cells, stably transduced (pLNCX2 retroviral vector); conditions: ^125I-DKK1 5 nM, 3 hours at 4° C.
Method: (§1) Cells (2×10^5) were seeded into 12-well dishes 1 day prior to assay. Ligand-binding buffer (minimal Eagle's medium containing 0.6% BSA with a different concentration of radioligand, 0.6 ml/well) was added to cell monolayers, in the absence or the presence of 500 nM unlabeled RAP or 500 nM unlabeled Mesd, followed with incubation for 0-4 hours at 4° C. Thereafter, overlying buffer containing unbound ligand was removed, and cell monolayers were washed and lysed in low-SDS lysis buffer (62.5 mM Tris-HCl pH 6.8, 0.2% SDS, 10% v/glycerol) and counted.
RAP is a receptor antagonist for members of the LDLR family, and is able to inhibit the binding of most known ligands of the LDLR family members. […] In these experiments, Serum-free conditioned medium was harvested from HEK293 cells transiently transfected with cDNA for human Myc-DKK1 and allowed to bind to LRP6-transduced HT1080 cells (B,C) and control cells (A) in the absence (A,B) or presence (C) of 1 μM Mesd. Cell-surface-bound Myc-tagged DKK proteins were fixed and detected by immunofluorescence staining with anti-Myc antibody. […] Binding of 125I-DKK1 (5 nM) to LRP6-transduced HT1080 cells or the control cells was carried out for 3 hours at 4° C. in the absence (total) or presence of 500 nM RAP or 500 nM Mesd. […] LRP6-mediated 125I-Mesd (5 nM) degradation was carried out for 4 hours at 37° C. in the absence or presence of 500 nM RAP or 500 nM Mesd. Values are the means of triple determinations with the s.d. indicated by error bars. Bar, 10 μm.

Wnt signaling = experiment: Wnt signalling TCF/LEF-Luc assay in HEK293 cells (Wnt3A conditioned medium plus Dkk1); type: cell-based; conditions: Wnt3A conditioned medium plus Dkk1 protein at 10 nM
Method: HEK293 cells were plated into six-well plates. For each well, […] of the TOP-[…] luciferase construct (Upstate Biotechnology) was cotransfected with 0.8 μg Mesd-expressing vector, 0.8 μg Mesd mutant-expressing vector, or empty vector. A β-galactosidase-expressing vector (Promega, Madison, Wis.) was included as an internal control for transfection efficiency. After 48 hours, cells were lysed and both luciferase and β-galactosidase activities were determined with enzyme assay kits (Promega). The luciferase activity was determined with a luminometer using the Dual Luciferase Assay system (Promega). Luciferase activity was normalized to the activity of the P-galactosidase.

LRP6 [3] = molecular target: T1, LRP6; experiment: ^125I-Mesd cell surface ligand binding to LRP6-transduced HT1080 cells; design: plasmid pCS-Myc-hLRP6 containing the full-length human LRP6 cDNA; HA; expressed in transfected cells; host or cells: human HT1080 cells, stably transduced (pLNCX2 retroviral vector); conditions: for Binding of Mesd truncation mutants to cell surface LRP6: LRP6-transduced HT1080 cells, 5 nM ^125I-labelled, 3 hours at 4° C. for Mesd (150-195)
Method: To examine whether Mesd binds with high affinity to […] at the cell surface, cell surface ligand binding experiments were performed with cells stably transduced with LRP6 cDNA. Human HT1080 cells, which express undetectable levels of LRP6, were transduced with a viral vector alone (pLNCX2) or with vector containing LRP6 cDNA (Li, Y., Oncogene 23: 9129-9135, 2004) and used for ^125I-Mesd binding (FIG. 1A). ^125I-Mesd (5 nM) reached maximal binding after 2 hours incubation at 4° C. with LRP6-expressing HT1080 cells (FIG. 1A).
(A) Time course of ^125I-Mesd (5 nM) binding to LRP6-transduced HT1080 cells and the control cells. Assay was carried out for the indicated periods at 4° C. in the absence (total) or presence of 500 nM Mesd (non-specific). (B) Saturation binding of ^125I-Mesd to LRP6-transduced HT1080 cells and the control cells. Assay was carried out at indicated concentrations for 3 hours at 4° C. in the absence (total) or presence (non-specific) of 500 nM Mesd. (C) Scatchard plots of data in B. All values are the average of triple determinations with the s.d. indicated by error bars.
as §1

LRP6 [4] = molecular target: T1, LRP6; experiment: ^125I-RAP binding to LRP6-transduced HT1080 cells and control cells; design: plasmid pCS-Myc-hLRP6 containing the full-length human LRP6 cDNA; HA; expressed in transfected cells; host or cells: human HT1080 cells, stably transduced (pLNCX2 retroviral vector)
Method: as §1
Receptor-associated protein (RAP) binds with high affinity to LRP, megalin, VLDLR and apoER2, and with a lower affinity to the LDLR (Bu, G., Int. Rev. Cytol. 209, 79-116. 2001). To determine whether RAP and Mesd bind to identical, overlapping, or different sites on the receptors, binding and competition analysis of these two chaperones with HT1080 cells stably expressing LRP6 was performed.
In FIG. 8A, binding of ^125I-RAP (5 nM) to LRP6-transduced HT1080 cells and the control cells was carried out for 4 hours at 4° C. in the absence (total) or presence of 500 nM RAP, or 500 nM Mesd. In FIG. 8B, binding of ^125I-Mesd (5 nM) to LRP6-transduced HT1080 cells was carried out for 2 hours at 4° C. in the absence (total) or presence of various concentrations of RAP or 500 nM Mesd. (C) LRP6-mediated ^125I-Mesd (5 nM) degradation was carried out for 4 hours at 37° C. in the absence or presence of 500 nM Mesd or 500 nM RAP. Values are the means of triple determinations with the s.d. indicated by error bars.

LRP6 [5] = molecular target: T1, LRP6; experiment: LRP6-mediated ^125I-Mesd degradation in LRP6-transduced HT1080 cells; type: cell-based; design: plasmid pCS-Myc-hLRP6 containing the full-length human LRP6 cDNA; HA; expressed in transfected cells; host or cells: human HT1080 cells, stably transduced (pLNCX2 retroviral vector); conditions: 500 nM unlabeled competitor, ^125I-Mesd 5 nM, 4 hours at 37° C.
Method: Ligand degradation was performed using the methods as described (Li, Y., J. Biol. Chem. 275: 17187-17194, 2000). Briefly, 2×10^5 cells were seeded into 12-well dishes 1 day prior to assay. Pre-warmed assay buffer (minimal Eagle's medium containing 0.6% BSA with radioligand, 0.6 ml/well) was added to cell monolayers in the absence or the presence of unlabeled 500 nM RAP or 500 nM Mesd, followed by incubation for 4 hours at 37° C. Thereafter, the medium overlying the cell monolayers was removed and proteins were precipitated by addition of BSA to 10 mg/ml and trichloroacetic acid to 20%. Degradation of radioligand was defined as the appearance of radioactive fragments in the overlying medium that were soluble in 20% trichloroacetic acid. Kinetic analysis of endocytosis LRP6-transduced HT1080 cells were plated in 12-well plates at a density of 2×10^5 cells/well and used after overnight culture. Cells were rinsed twice in ice-cold assay buffer (minimal Eagle's medium containing 0.6% BSA), and ^125I-anti-HA IgG was added at 1 nM final concentration in cold assay buffer (0.5 ml/well). The binding of ^125Ianti- HA IgG was carried out at 4° C. for 90 minutes with gentle rocking. Unbound ^125I-anti-HA IgG was removed by washing cell monolayers three times with cold assay buffer. Ice-cold stop/strip solution (0.2 M acetic acid, pH 2.6, 0.1 M NaCl) was added to one set of plates without warming up and kept on ice. The remaining plates were then placed in a 37° C. water bath and 0.5 ml assay buffer prewarmed to 37° C. was quickly added to cell monolayers to initiate internalization. After each time point, the plates were quickly placed on ice and the assay buffer was replaced with cold stop/strip solution. ^125I-anti-HA IgG that remained on the cell surface was stripped by incubation of cell monolayers with cold stop/strip solution for a total of 20 minutes (0.75 ml for 10 minutes, twice) and counted. Cell monolayers were then solubilized with low-SDS lysis buffer and counted. […] The fraction of internalized ^125I-anti-HA IgG after each time point was calculated and plotted. […]

[6] = molecular target: T2, LRP6 on LRP6-transduced HT1080 cells (HA-tagged) (UniProt O75581 20-1613, limits assumed); experiment: competition against 125I-DKK1 for LRP6 (FIG. 10D)
T2 construct: whole, on cells; also called mature LRP6; cell surface LRP6
T2 sequence (O75581 20-1613 limits assumed): as the sequence (O75581 20-1613) above

[7] = molecular target: T3, human Myc-tagged LRP5 on transiently transfected HEK293 cells (human, UniProt O75197 32-1615); experiment: competition against 125I-Mesd for LRP5 (FIG. 10A)
T3 construct: whole, on cells; also called mature LRP5; pcDNA3.1C-Myc-hLRP5
T3 sequence (O75197 32-1615): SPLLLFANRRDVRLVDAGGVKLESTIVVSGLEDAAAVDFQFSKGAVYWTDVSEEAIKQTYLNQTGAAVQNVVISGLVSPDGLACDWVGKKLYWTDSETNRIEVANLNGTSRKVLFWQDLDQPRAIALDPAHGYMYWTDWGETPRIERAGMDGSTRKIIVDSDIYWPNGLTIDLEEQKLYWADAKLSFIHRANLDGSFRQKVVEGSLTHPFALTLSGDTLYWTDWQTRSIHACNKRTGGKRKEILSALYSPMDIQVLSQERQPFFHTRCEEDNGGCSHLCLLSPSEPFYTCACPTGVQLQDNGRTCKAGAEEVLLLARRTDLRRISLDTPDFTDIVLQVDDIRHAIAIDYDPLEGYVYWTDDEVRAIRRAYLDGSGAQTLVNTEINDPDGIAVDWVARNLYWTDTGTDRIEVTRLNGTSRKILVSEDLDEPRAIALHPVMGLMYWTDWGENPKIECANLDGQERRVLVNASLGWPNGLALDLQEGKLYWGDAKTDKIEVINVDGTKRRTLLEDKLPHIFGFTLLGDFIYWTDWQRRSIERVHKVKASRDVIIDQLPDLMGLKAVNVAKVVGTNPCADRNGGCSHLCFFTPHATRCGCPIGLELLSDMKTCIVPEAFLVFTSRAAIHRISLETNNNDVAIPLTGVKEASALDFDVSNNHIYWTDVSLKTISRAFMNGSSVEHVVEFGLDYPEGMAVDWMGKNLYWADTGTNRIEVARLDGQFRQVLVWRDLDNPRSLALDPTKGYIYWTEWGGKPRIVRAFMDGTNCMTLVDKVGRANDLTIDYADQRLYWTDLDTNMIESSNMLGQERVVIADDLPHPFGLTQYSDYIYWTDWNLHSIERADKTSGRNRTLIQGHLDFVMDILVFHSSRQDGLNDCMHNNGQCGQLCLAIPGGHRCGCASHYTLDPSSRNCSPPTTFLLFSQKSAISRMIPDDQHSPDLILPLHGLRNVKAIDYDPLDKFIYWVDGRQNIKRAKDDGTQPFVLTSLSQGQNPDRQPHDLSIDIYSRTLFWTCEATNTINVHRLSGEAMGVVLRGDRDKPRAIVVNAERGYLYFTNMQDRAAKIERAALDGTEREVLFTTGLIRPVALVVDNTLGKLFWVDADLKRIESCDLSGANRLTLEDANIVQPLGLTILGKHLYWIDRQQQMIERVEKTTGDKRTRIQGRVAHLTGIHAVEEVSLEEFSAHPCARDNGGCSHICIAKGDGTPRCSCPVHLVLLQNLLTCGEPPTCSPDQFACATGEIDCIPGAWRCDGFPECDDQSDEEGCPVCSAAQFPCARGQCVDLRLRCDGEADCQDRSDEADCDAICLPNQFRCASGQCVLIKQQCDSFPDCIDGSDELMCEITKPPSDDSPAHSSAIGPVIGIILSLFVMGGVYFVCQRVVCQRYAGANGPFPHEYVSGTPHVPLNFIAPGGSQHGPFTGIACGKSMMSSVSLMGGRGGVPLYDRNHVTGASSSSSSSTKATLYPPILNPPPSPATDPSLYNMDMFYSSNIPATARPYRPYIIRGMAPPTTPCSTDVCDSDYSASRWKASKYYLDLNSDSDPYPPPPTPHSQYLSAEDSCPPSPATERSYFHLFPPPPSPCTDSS

In the case of “DKK1: human DKK1 protein, LRP6-specific ligand and antagonist; recombinant (R&D Systems) or Myc-tagged in conditioned medium”, the “^125I-DKK1 degradation in LRP6-expressing HT1080 cells versus control cells” value (LRP6 [1]) is reported as “significantly higher levels”, the “^125I-DKK1 binding in LRP6-expressing HT1080 cells versus control cells” value (LRP6 [2]) is reported as “significantly higher levels” and the “Effect of Dkk1 on Wnt signaling (luciferase activity)” value (Wnt signaling) is reported as “inhibits Wnt signaling”.

With “KGGGSKEKNKTKPEKAKKKEGDRKPRASKEDNRAGSR [SEQ ID NO: 21]” the “Restoring of Wnt signaling inhibited by Dkk1 (luciferase activity)” value (Wnt signaling) was “at least partially restoring Wnt signaling”.

In the case of “QMYPGKGGGSKEKNKTKPEKAKKKEGDPKPRASKEDNRAGSRREDL [SEQ ID NO: 22]”, the “Restoring of Wnt signaling inhibited by Dkk1 (luciferase activity)” value (Wnt signaling) is reported as “at least partially restoring Wnt signaling” and the “Binding of Mesd truncation mutants to cell surface LRP6” value (shortened to “Binding of Mesd truncation mutants”) (LRP6 [3]) is reported as “necessary and sufficient for LRP6 binding”.

In the case of “RAP: human recombinant 39 kDa receptor-associated protein, expressed in a GST expression vector [reference compound]”, the “Effect of excess unlabeled competitor on increased DKK1 binding” value (LRP6 [2]; 500 nM competitor) is reported as “not”, the “Effect of excess unlabeled competitor on ^125I-RAP binding to control cells” value (LRP6 [4]; 500 nM competitor, control cells expressing vector alone, 4° C.) is reported as “completely eliminated this binding” and the “Increase of RAP binding in LRP6 expressing HT1080 cells compared to control cells” value (LRP6 [4]; ^125I-RAP 5 nM, 4 hours at 4° C.) is reported as about 20%. The “Inhibition of ^125I-Mesd binding to cell surface LRP6” value (LRP6 [3]; 500 nM unlabeled competitor, ^125I-Mesd 5 nM, 2 hours at 4° C.) was about 60% and the “Inhibition of ^125I-Mesd degradation” value (LRP6 [5]) was “only partially”.

With KGGGSKEKNKTKPEKAKKKEGDPKPRASKEDNRAGSR (also called the oligopeptide) [Mesd oligopeptide KGGGSKEKNKTKPEKAKKKEGDPKPRASKEDNRAGSR (SEQ ID NO: 20)] the “fold reduction of ^125I-DKK1 binding” value [6] was over 2 fold and the “fold reduction of ^125I-Mesd binding” value [7] was about 10 fold.

B1: MESD(12-195): truncated Mesd mutant lacking the N-terminal region (N-terminal 11 amino acids of mouse Mesd) (protein)
chain: RKKKDIRDYNDADMARLLEQWEKDDDIEEGDLPEHKRPSAPIDFSKLDPGKPESILKMTKKGKTLMMFVTVSGNPTEKETEEITSLWQGSLFNANYDVQRFIVGSDRAIFMLRDGSYAWEIKDFLVSQDRCAEVTLEGQMYPGKGGGSKEKNKTKPEKAKKKEGDRKPRASKEDNRAGSRREDL
modifications: left off: small tags and cut ends
For B1, the “Binding of Mesd truncation mutants” value (LRP6 [3]) was “no effect on LRP6 binding”.

B2: Mesd(12-155): truncated Mesd mutant lacking both the N-terminal and C-terminal regions (protein)
chain: RKKKDIRDYNDADMARLLEQWEKDDDIEEGDLPEHKRPSAPIDFSKLDPGKPESILKMTKKGKTLMMFVTVSGNPTEKETEEITSLWQGSLFNANYDVQRFIVGSDRAIFMLRDGSYAWEIKDFLVSQDRCAEVTLEGQMYPGK
modifications: left off: small tags and cut ends
notes: truncated Mesd mutant lacking both the N-terminal and C-terminal regions
In the case of B2, the “Binding of Mesd truncation mutants” value (LRP6 [3]) is reported as “completely abolished LRP6 binding”.
